B1: SFRS1 (parent)
chain: YSPRRSRGSPRYSPRHSRSRSRT

Variants of: B1
Experiment: protein stability index of a GFP-peptide fusion (GPS, HEK-293T) (PSI 1-6); higher = more stable
Conditions: c terminus: native
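Also: lentivirally expressed fusions sorted by FACS into six bins by GFP to DsRed ratio, PSI derived from sequencing read proportions per bin multiplied by bin number.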

Variant | protein stability index
YSPRRSRGSPRYSPRHSRSGSRT [R20G] | 3.79
YSPRRSRGSPRYSPRHSRSASRT [R20A] | 3.68
YSPRRSRGSPRYSPRHSRSKSRT [R20K] | 3.85
YSPRRSRGSPRYSPRHSRSVSRT [R20V] | 3.66
YSPRRSRGSPRYSPRHSRSFSRT [R20F] | 2.71
YSPRRSRGSPRYSPRHSRSISRT [R20I] | 3.69
YSPRRSRGSPRYSPRHSRSYSRT [R20Y] | 2.9
YSPRRSRGSPRYSPRHSRSLSRT [R20L] | 4.08
YSPRRSRGSPRYSPRHSRSHSRT [R20H] | 4.12
YSPRRSRGSPRYSPRHSRSNSRT [R20N] | 4.44
YSPRRSRGSPRYSPRHSRSCSRT [R20C] | 3.49
YSPRRSRGSPRYSPRHSRSPSRT [R20P] | 3.81
YSPRRSRGSPRYSPRHSRSESRT [R20E] | 4.48
YSPRRSRGSPRYSPRHSRSDSRT [R20D] | 4.36
YSPRRSRGSPRYSPRHSRSTSRT [R20T] | 3.6
YSPRRSRGSPRYSPRHSRSQSRT [R20Q] | 4.04
YSPRRSRGSPRYSPRHSRSWSRT [R20W] | 1.77
YSPRRSRGSPRYSPRHSRSMSRT [R20M] | 3.4
YSPRRSRGSPRYSPRHSRSSSRT [R20S] | 4.21
YSPRRSRGSPRYSPRHSRYRSRT [S19Y] | 3.96
YSPRRSRGSPRYSPRHSRCRSRT [S19C] | 3.71
YSPRRSRGSPRYSPRHSRPRSRT [S19P] | 4.39
YSPRRSRGSPRYSPRHSRHRSRT [S19H] | 3.89
YSPRRSRGSPRYSPRHSRIRSRT [S19I] | 3.8
YSPRRSRGSPRYSPRHSRERSRT [S19E] | 3.14

Variant | protein stability index
YSPRRSRGSPRYSPRHSRWRSRT [S19W] | 3.76
YSPRRSRGSPRYSPRHSRQRSRT [S19Q] | 3.89
YSPRRSRGSPRYSPRHSRTRSRT [S19T] | 3.68
YSPRRSRGSPRYSPRHSRARSRT [S19A] | 2.98
YSPRRSRGSPRYSPRHSRGRSRT [S19G] | 3.95
YSPRRSRGSPRYSPRHSRLRSRT [S19L] | 3.79
YSPRRSRGSPRYSPRHSRKRSRT [S19K] | 3.88
YSPRRSRGSPRYSPRHSRVRSRT [S19V] | 3.73
YSPRRSRGSPRYSPRHSRRRSRT [S19R] | 3.55
YSPRRSRGSPRYSPRHSRFRSRT [S19F] | 3.75
YSPRRSRGSPRYSPRHSRDRSRT [S19D] | 3.75
YSPRRSRGSPRYSPRHSRMRSRT [S19M] | 2.9
YSPRRSRGSPRYSPRHSRNRSRT [S19N] | 4.23
YSPRRSRGSPRYSPRHSRSRERT [S21E] | 3.8
YSPRRSRGSPRYSPRHSRSRART [S21A] | 3.41
YSPRRSRGSPRYSPRHSRSRCRT [S21C] | 3.06
YSPRRSRGSPRYSPRHSRSRDRT [S21D] | 3.79
YSPRRSRGSPRYSPRKSRSRSRT [H16K] | 4.35
YSPRRSRGSPRYSPRGSRSRSRT [H16G] | 4.31
YSPRRSRGSPRYSPRNSRSRSRT [H16N] | 4.1
YSPRRSRGSPRYSPRISRSRSRT [H16I] | 3.95
YSPRRSRGSPRYSPRYSRSRSRT [H16Y] | 4.45
YSPRRSRGSPRYSPRQSRSRSRT [H16Q] | 4.02
YSPRRSRGSPRYSPRDSRSRSRT [H16D] | 4.05
YSPRRSRGSPRYSPRRSRSRSRT [H16R] | 4.5

Variant | protein stability index
YSPRRSRGSPRYSPRWSRSRSRT [H16W] | 3.14
YSPRRSRGSPRYSPRFSRSRSRT [H16F] | 3.83
YSPRRSRGSPRYSPRSSRSRSRT [H16S] | 4.5
YSPRRSRGSPRYSPRTSRSRSRT [H16T] | 4.27
YSPRRSRGSPRYSPRLSRSRSRT [H16L] | 4.35
YSPRRSRGSPRYSPRMSRSRSRT [H16M] | 3.95
YSPRRSRGSPRYSPRESRSRSRT [H16E] | 3.47
YSPRRSRGSPRYSPRPSRSRSRT [H16P] | 4.35
YSPRRSRGSPRYSPRVSRSRSRT [H16V] | 3.93
YSPRRSRGSPRYSPRHPRSRSRT [S17P] | 4.19
YSPRRSRGSPRYSPRHMRSRSRT [S17M] | 4.06
YSPRRSRGSPRYSPRHDRSRSRT [S17D] | 3.75
YSPRRSRGSPRYSPRHRRSRSRT [S17R] | 4.49
YSPRRSRGSPRYSPRHCRSRSRT [S17C] | 4
YSPRRSRGSPRYSPRHWRSRSRT [S17W] | 3.69
YSPRRSRGSPRYSPRHIRSRSRT [S17I] | 4.04
YSPRRSRGSPRYSPRHQRSRSRT [S17Q] | 4
YSPRRSRGSPRYSPRHGRSRSRT [S17G] | 3.53
YSPRRSRGSPRYSPRHNRSRSRT [S17N] | 3.81
YSPRRSRGSPRYSPRHYRSRSRT [S17Y] | 3.6
YSPRRSRGSPRYSPRHERSRSRT [S17E] | 3.9
YSPRRSRGSPRYSPRHTRSRSRT [S17T] | 4.05
YSPRRSRGSPRYSPRHARSRSRT [S17A] | 4.15
YSPRRSRGSPRYSPRHFRSRSRT [S17F] | 4.13
YSPRRSRGSPRYSPRHVRSRSRT [S17V] | 3.73

Variant | protein stability index
YSPRRSRGSPRYSPRHLRSRSRT [S17L] | 3.69
YSPRRSRGSPRYSPRHHRSRSRT [S17H] | 3.77
YSPRRSRGSPRYSPRHKRSRSRT [S17K] | 4.35
YSPRRSRGSPRYSPRHSFSRSRT [R18F] | 2.42
YSPRRSRGSPRYSPRHSLSRSRT [R18L] | 3.44
YSPRRSRGSPRYSPRHSDSRSRT [R18D] | 2.77
YSPRRSRGSPRYSPRHSNSRSRT [R18N] | 3.5
YSPRRSRGSPRYSPRHSPSRSRT [R18P] | 2.52
YSPRRSRGSPRYSPRHSVSRSRT [R18V] | 3.68
YSPRRSRGSPRYSPRHSYSRSRT [R18Y] | 3.07
YSPRRSRGSPRYSPRHSKSRSRT [R18K] | 2.94
YSPRRSRGSPRYSPRHSHSRSRT [R18H] | 3.28
YSPRRSRGSPRYSPRHSSSRSRT [R18S] | 2.9
YSPRRSRGSPRYSPRHSCSRSRT [R18C] | 2.61
YSPRRSRGSPRYSPRHSASRSRT [R18A] | 3.64
YSPRRSRGSPRYSPRHSESRSRT [R18E] | 2.44
YSPRRSRGSPRYSPRHSTSRSRT [R18T] | 3.46
YSPRRSRGSPRYSPRHSWSRSRT [R18W] | 2.93
YSPRRSRGSPRYSPRHSISRSRT [R18I] | 3.43
YSPRRSRGSPRYSPRHSGSRSRT [R18G] | 3.27
YSPRRSRGSPRYSPRHSQSRSRT [R18Q] | 3.27
YSPRRSRGSPRYSPRHSMSRSRT [R18M] | 2.87
